From the nanobody polyreactivity screen of Harvey et al. (2022)

Experiment: yeast display, Sf9 membrane polyspecificity reagent, FACS + sequencing; frameworks hold sequencing errors
Procedure, shortened: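 Nanobodies from a synthetic yeast display library (Saccharomyces cerevisiae BJ5465), induced 36–48 hours with galactose, were stained 1 hour at 4 °C with 10% biotinylated, detergent-solubilized Sf9 membrane reagent, enriched on streptavidin microbeads, then FACS-sorted. Anti-HA (expression) and streptavidin (reagent binding) fluorescence set low and high (top ~1%) gates. Polyreactivity labels come from the gate of origin. Genes were colony-PCR amplified, MiSeq 2 × 250 sequenced and filtered by CDR length.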

## QVPLAETGGGLVQAGGSLRLSCASSGSIYRYAMGWYRKEPGKEREFVAANTWNGGSTYYADSVKGRLTRSLDYAKNTVYLPMNSLKPEDTAVYNCAADWSYFRRHFDYWVQGTQVTVSS
  polyreactivity (PSR sort gate): high polyreactivity

## QVPLQVSGGYLVQAGGSVRLSCAASGTIYGLTALGWYRQAPGKEREFVAAITDGGNTNYADSVKGRFTISRDNAKNTVYLQMLSLKPEDTAVYYCAVLFSDDAYYAYWGQGTQVTVSS
  polyreactivity (PSR sort gate): low polyreactivity

## QVPLVESAGGLVQAGGSLRLSCAASGITLYVYAKGWYRQAPGKERELVAAINSGGNTYYADSVKGRFTISRDNAKNTVYLQMNSLKPADTAVYYCAAVYPRQVSHVWRDDYWGQGTQVTVSS
  polyreactivity (PSR sort gate): high polyreactivity

## QVPLVESGGGLVQAAGSLRLSCAASGRISLGYAMGWYRQAPGKERELVAAISRGGTNTYYADSVKGRFTISRDNAKNTVYLQMNSLKPEDTAVYYCAARYSWGQGTQVTVSS
  polyreactivity (PSR sort gate): high polyreactivity

## QVPLVESGGGLVQAGGRLRISCAASGITCTFYSMGWYREAPGKESELVAAISRRGGSTYYADSVKGRFTISRDNEKNTVYLHMNSLKPEDTAVYYCAARGYRPMDYWGQGTQVTVSS
  polyreactivity (PSR sort gate): high polyreactivity

## QVPLVESGGGLVQAGGSLRISCAASGSTFWYYAMGWYRQAPGKEREMVATITSTGTTNYADSVKGRFTISRDTAKNTVYLQMNSLKPEDTAVYYCNARSWSYSYPYLTYYYIAGYWGQGTQVTVSS
  polyreactivity (PSR sort gate): low polyreactivity

## QVPLVESGGGLVQAGGSLRLSCAASGFIFPNYVMGWYRQEPGKEREFVAGISVRGGRTYYADSVKGRFTISRDNAKNTVYLQMNSLKPEDTAVYYCAADRKASAFNYWGQGTQVTVSS
  polyreactivity (PSR sort gate): high polyreactivity

## QVPLVESGGGLVQAGGSLRLSCAASGLTFRDNAMGCSRQAPGKERELVAALSTNGGSTYYADSVTGRFTISRDNAKNTVYLQLNSLKPEDTALYVCAKSFLPQYPQVDSDYWGQGTQVTVSS
  polyreactivity (PSR sort gate): low polyreactivity

## QVPLVESGGGLVQAGGSLRLSCAASGRTFPRYAMGWYRQAPGKERELVATISSGGSTNYADSVKGRFTISLDNAKNTVYLQMNSLKPEDTAVYYCAARYGRTYTRVGYWGQGTQVTVSS
  polyreactivity (PSR sort gate): high polyreactivity

## QVPLVESGGGLVQAGGSLRLSCAASGSIFTVYAVGWYRQAPGKERELVASIRFSSGRTYYADSVKGRFTISRDNAKNTVYLHMTSLKPEDTAVYYCAAETVSWYRYYYWGQGTQVTVSS
  polyreactivity (PSR sort gate): high polyreactivity

## QVPLVESGGGLVQSGGSLRLSCAASGSTCSRNAMGWYREAPGKERELVAAINDSGGSTYYADSVKGRFTISRDMAKNTVYLQMNSLKPEDTAVYYCNAVSPYYWDFRYDYWGQGTQVTVSS
  polyreactivity (PSR sort gate): high polyreactivity

## QVPLVESGVGLVQAGGSLRLSCAASGYTFYSYAMGWYRQAPGKEREFVAAIRTGGGTNYADSVKGRFTISRDNAKNTVYLQMNSLKPEDTAVYYCAARYYSQKSYIGFRPGYEYWGQGTQVTVSS
  polyreactivity (PSR sort gate): low polyreactivity

## QVQFVESGGGLVQAGGSLRLSCAASGSIFSSYAMGWYRQAPGKERELVAVINSGGSTNYADSVKGRFTISRDNAKNTVYLHMNSLKPEDTAVYYCNAYGGTFHNTAAEFDYWGQGTQVTVSS
  polyreactivity (PSR sort gate): low polyreactivity

## QVQFVESGGGLVQAGGSLRLSCAASGSTFQGYAMGWYRQAPGKERELVAAISRSGGRTYYADSVKGRFTISRDNAKNTVYLQMNSLKPEDTAVYYCAAEGHELTEGDSWGQGTQVTVSS
  polyreactivity (PSR sort gate): low polyreactivity

## QVQFVESGGGLVQAGGSLRLSCAASGSTFQGYAMGWYRQAPGKERELVAAISRSGGRTYYADSVKGRFTISRDNAKNTVYLQMNSLKPEDTAVYYCAKYYWAPTGAHGGYGYWGQGTQVTVSS
  polyreactivity (PSR sort gate): low polyreactivity

## QVQFVESGGGLVQSGGSLRLSCAASGSIFRAYAMGWYRPAPGKEREFVAAISRRGGSTSYADSVKGRFTISRDYAKNTVYLQMNSLKPEDTAVYYCAATYQILTTSAHDSWGQGTQVTVSS
  polyreactivity (PSR sort gate): high polyreactivity

## QVQHEESGGGLVQAGGSLRLSCAASGYTFSFYAMGWSRQAPGKERELVAAISSSDGTTYYADSVKGRFTISRDNAKNTVYLQMNSLKPQDTAVYYCNTRYVRQVVGTYTLKTRYYWGQGTQVTVSS
  polyreactivity (PSR sort gate): high polyreactivity

## QVQHGESGGGLVQAGGSLRLSCAASGRIFYYYAMGWYRQAPGKERELVAAITWNAGITYYADSVKGRFTISRDNAKNTVYLQMNSLKPEDSAVYYCAASRWARGRDYWGQGTQVTVSS
  polyreactivity (PSR sort gate): high polyreactivity

## QVQHLESRGGLVQAGGSLRLSCAASGSIFASNAMGWYRPAPGKEREFVAAITWRTDRTYYADSVKGRYTISRDIAKNTVYLQMNSLKPEDTAVYYCNAGRRVYYYSAYYGGGYWGQGTQVTVSS
  polyreactivity (PSR sort gate): high polyreactivity

## QVQHVDSGGCLVQAGGTLRLSCAASGFTLWAYAMGWYRQAPGKEREFVAVISRSDGSTYYADSVKGRFTISRENAKNTVYLQMNSLKPEDSAVYYCAAKHRGAKYDYWGQGTQVTVSS
  polyreactivity (PSR sort gate): low polyreactivity

## QVQHVDSGGGLFQAAGSLRLSCAASGGTFSFYTMGWSRQGPGKERELVAAIDSTGRTNYADSVKGRFTISRDKAKNTVYLQMNSLKPEDSAVYYCSAGPPRADYDYWGQGTQVTVSS
  polyreactivity (PSR sort gate): low polyreactivity

## QVQHVDSGGGLVQAGGSLRLSCAASGFIFAYNIMGWYRQAPGKERELVADISGTGSTNYADSVKGRFTISRDNAKNTVYLQMNSLKPEDTAVYYCATSGDRLVWGQGTLVTVSS
  polyreactivity (PSR sort gate): low polyreactivity

## QVQHVDSGGRLVQAGGRLRLSCAASGRIITYYARGWNRQAPGKERELVAAISGRGGGTYYADSVKGRFTISRDNAKNTVYLQMNSLKPADTAVYYCNAYYSRLRYDYWGQGTQVTVSS
  polyreactivity (PSR sort gate): high polyreactivity

## QVQHVESAGGLVQAAGSLRLSCAASGLSYSRYAMGWYRQAPGKERELVAAITWSGSSTYYADSVKGRFTISRDNAKNTVYLQMNSLKPEDTAVYYCAGRYGYSRGPYYRSDYWGQGTQVTVSS
  polyreactivity (PSR sort gate): high polyreactivity

## QVQHVESAGGLVQEAGSLRLRCAASGSTFYSYAMGWSRQAPGKERELVAAISRSGGRTNYADSVKGRFTISRDIAKNTVYLQMNSLKPEDTAVYYCNARHYLSAYDYWGQGTQVTVSS
  polyreactivity (PSR sort gate): high polyreactivity

## QVQHVESCGGLVQAGGSLRLSCAASGRIINSNDMGWYRQAPGKERELVAAISKRGGSTFYADSVKGRFTISRDNAKNTVYLQRNSLKPEDTAVYYCAADKWTYYYAVDSWGQGTQVTVSS
  polyreactivity (PSR sort gate): high polyreactivity

## QVQHVESGAGLVQAGGSLRLSCAASGRTFYYYAMGWYRQAPGKERELVAAISTNGGSTSYADSVKGRFTISRDNAKNTVYLQMNSLKPEDSAVYYSAAYYRTPTDVEYDYWGQGTQVTVSS
  polyreactivity (PSR sort gate): high polyreactivity

## QVQHVESGGALVQAGGSLRLSCAASGSTYYIYAMGWYRHGPGKERELVARISGSGGSTYYADSVKGRFTISRDNAKNTVYLQMNSLKPEDTAVYYCAADDIYKYYQYYAFQYFRYDYWGQGTQVTVSS
  polyreactivity (PSR sort gate): low polyreactivity

## QVQHVESGGCLFQAGGILRLSCAASGIIFTYYDMGWYRQAPGKERELVAGIDYSGTSTYYADSVKGRFTISRDNAKNTVYLQMNSLKPEDTAVYYCAAVPVWVVYFSGEYYYWGQGTQVTVSS
  polyreactivity (PSR sort gate): high polyreactivity

## QVQHVESGGCLVQARGSLRLSCASSGRTFDIYARGWYRHPPGKESELVAVISASGGSTYYADSVKGRFTISRDNAKNTVYLQMNSLKPEDTAVYYCAARYWFRFQYDYWGQGTQVTVSS
  polyreactivity (PSR sort gate): high polyreactivity

## QVQHVESGGGIVQAGGSLRLSCAASGSIFVRYAMGWYRQAPGKERESVAAISASGSSTYYADSVKGRFTISRDNAKNTVYLQMNSLKPEDTADYYCNAVRARRFDYWGQGTQVTVSS
  polyreactivity (PSR sort gate): high polyreactivity

## QVQHVESGGGIVQAGGSLRLSCAASGSIFYQYAMGWYRQSPGKERELVAASSRSGGSTYYADSVKGRFTISRHNAKNTVYLQMNSLKPEDTAVYYCAARAVRAAYDYWGQGTQVTVSS
  polyreactivity (PSR sort gate): low polyreactivity

## QVQHVESGGGKVQAGGSLRLSCASSGFTIMSYAMGWYRQAPGKERELVAAISRSGGSTYYADSVKGRFTISRDKAKNTVYLQMISLKPEDTAVYYCAARSAFRKQFSRNNYWGQGSQVTVSS
  polyreactivity (PSR sort gate): high polyreactivity

## QVQHVESGGGLDQAARSLRLICAASGSIFTDNGMGWYRQAPGKERELVAAISWRGGTYYADSVKGRFTISRDNAKNSVYLQMNSLKPEDTAVYYCNADPEAEGNFEYYYWGQGTQVTVSS
  polyreactivity (PSR sort gate): low polyreactivity

## QVQHVESGGGLDQAGGSLRLSCAASGITFEGYAMGWYRQAPGKERELVAAIRSSGTSTYYADSVKGRFTISRDNAKNTFYLQMISLKPEETAVYYCNRARSSYSYDYWGQGTQVTVSS
  polyreactivity (PSR sort gate): low polyreactivity

## QVQHVESGGGLDQAGGSLRLSCAASGRTFSYYTMGWYRQAPGKERELVARISNRGTNTYYADSVKGRFTISRDNSKNTVYLQMNSLKPEDTAVYYCAKYYYTSIVGYDSWGQGTQVTVSS
  polyreactivity (PSR sort gate): low polyreactivity

## QVQHVESGGGLDQAGGSLRLSCAASGSIFNGYAMGWYRQAPGKERELVADIRSGGSTYYADSVKGRFTISRDNAKNTVYLQMNSLKPEDTAVYYCAGDTITDGYDYWGQGTQVTVSS
  polyreactivity (PSR sort gate): low polyreactivity

## QVQHVESGGGLDQAGGSLRLSCAASGSIYVGNEMGWSRQATGKETELVDTISWSGGSTYYADSVKGRFTISRDNAKNTVYLQMNSLKPEDTAVYYCAKTPYRRYRYGGYNYRTYDYWGQGTQVTVSS
  polyreactivity (PSR sort gate): low polyreactivity

## QVQHVESGGGLFQAGGSLRLSCAASGQNFRPYALGWDRQAPGKERELVAAIRWSDDSTYFAVSVKGRFTILRDNAKNTVYLQLNSLKPEDTAVYYCNARWWYPTYYYWGQGSQVTVSS
  polyreactivity (PSR sort gate): high polyreactivity

## QVQHVESGGGLLQAGGSLRLSCAASGFTFNANAMGWYRQAPGKERELVAVITRSGGRTYYADSVKGRFTISRDNAKNTVYLQMNSLKPEDTAVYYCNAKGWTRPPCYDYWGQGTQVTVSS
  polyreactivity (PSR sort gate): high polyreactivity

## QVQHVESGGGLVQAGGILRLSCAASGFTFPAYTMGWYRQAPGKERELVAAITSSGGNTYYADSVKGRFTISRDNAKNTLCLQMNSLKPEDTAVYYCATVSVRWPSNDHVRYDYWGQGTQVTVSS
  polyreactivity (PSR sort gate): low polyreactivity

## QVQHVESGGGLVQAGGNLRLSCPASGFTIYYYAMVCDRQAPGKERELVAGISKSGGITYYADSVKGRFTISRDNAKNTVYLQMNSLKPEDTAVYYCAAAEWYQFFIYRYTYEYWGQGSQVTVSS
  polyreactivity (PSR sort gate): low polyreactivity

## QVQHVESGGGLVQAGGSLLLSCAASGSIFYLYAMGWYRQEPGKERELVATMSSSGGSTYYADSVKGRFTISRDNAKNTVYLQMNSLKPEDTAVYYCNADYIYYGTTYEYWGQGTQVTVSS
  polyreactivity (PSR sort gate): low polyreactivity
